T1: chimeric Flt3/G-CSF receptor on transfected mouse Baf/3 cells (human) (UniProt P36888)
T1 sequence (looked up): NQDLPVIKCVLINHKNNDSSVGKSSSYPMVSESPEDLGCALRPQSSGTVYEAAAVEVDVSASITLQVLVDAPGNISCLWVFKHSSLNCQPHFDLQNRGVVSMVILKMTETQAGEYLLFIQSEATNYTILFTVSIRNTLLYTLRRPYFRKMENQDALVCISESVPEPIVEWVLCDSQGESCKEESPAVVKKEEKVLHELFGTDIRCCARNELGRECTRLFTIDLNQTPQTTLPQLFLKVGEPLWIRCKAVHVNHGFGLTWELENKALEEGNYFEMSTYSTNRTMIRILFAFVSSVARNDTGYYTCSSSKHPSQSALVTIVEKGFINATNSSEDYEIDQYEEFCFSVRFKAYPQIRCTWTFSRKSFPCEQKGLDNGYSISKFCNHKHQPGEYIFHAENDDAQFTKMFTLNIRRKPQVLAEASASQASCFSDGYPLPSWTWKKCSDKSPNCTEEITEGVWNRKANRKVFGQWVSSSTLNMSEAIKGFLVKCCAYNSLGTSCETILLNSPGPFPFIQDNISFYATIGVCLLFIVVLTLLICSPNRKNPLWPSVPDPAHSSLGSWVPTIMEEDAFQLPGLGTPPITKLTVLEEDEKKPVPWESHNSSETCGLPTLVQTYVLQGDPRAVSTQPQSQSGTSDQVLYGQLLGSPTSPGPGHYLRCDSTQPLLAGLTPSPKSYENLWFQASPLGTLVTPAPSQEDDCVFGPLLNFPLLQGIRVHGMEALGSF

T2: human G-CSF receptor on transfected mouse BaF3 cells (mBaF3/hG-CSFR) (human) (UniProt Q99062)
T2 sequence (looked up): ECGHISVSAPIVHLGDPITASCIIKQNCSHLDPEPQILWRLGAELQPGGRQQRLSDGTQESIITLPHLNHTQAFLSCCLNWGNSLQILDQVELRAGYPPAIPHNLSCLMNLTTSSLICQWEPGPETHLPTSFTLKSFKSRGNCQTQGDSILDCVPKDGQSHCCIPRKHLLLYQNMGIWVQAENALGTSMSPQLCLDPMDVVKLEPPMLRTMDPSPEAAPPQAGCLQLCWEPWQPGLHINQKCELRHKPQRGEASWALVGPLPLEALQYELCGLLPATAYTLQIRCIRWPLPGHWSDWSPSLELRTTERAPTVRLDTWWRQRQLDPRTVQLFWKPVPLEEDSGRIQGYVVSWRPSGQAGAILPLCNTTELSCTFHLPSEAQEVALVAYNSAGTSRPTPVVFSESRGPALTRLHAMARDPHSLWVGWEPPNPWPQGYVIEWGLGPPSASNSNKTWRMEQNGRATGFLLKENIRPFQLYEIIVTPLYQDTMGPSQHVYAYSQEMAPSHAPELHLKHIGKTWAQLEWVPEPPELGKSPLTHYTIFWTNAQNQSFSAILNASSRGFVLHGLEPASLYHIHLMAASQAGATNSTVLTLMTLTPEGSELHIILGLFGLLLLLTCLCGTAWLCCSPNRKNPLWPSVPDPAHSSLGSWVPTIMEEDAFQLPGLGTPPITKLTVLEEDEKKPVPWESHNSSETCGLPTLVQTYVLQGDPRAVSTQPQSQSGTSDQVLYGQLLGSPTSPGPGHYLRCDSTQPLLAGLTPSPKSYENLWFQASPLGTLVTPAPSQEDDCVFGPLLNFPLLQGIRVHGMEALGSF


Assays:
[1] = biological target: T1, chimeric Flt3/G-CSF receptor on transfected mouse Baf/3 cells (human); test: cell-based or functional assay
[2] = biological target: T2, human G-CSF receptor on transfected mouse BaF3 cells (mBaF3/hG-CSFR) (human); test: cell-based or functional assay

Average EC50 (n = 12), BAF3/Flt cell proliferation ([3H]-thymidine) [1] [nM] | Average EC50 (n = 9), BAF3/G-CSF cell proliferation ([3H]-thymidine) [2] [nM] | Average Rel. Potency, BAF3/G-CSF cell proliferation [2] | Average Rel. Potency, BAF3/Flt cell proliferation [1] | Molecule
> 200 | 0.025 | 1 |  | recombinant human G-CSF (from UniProt P09919 31-204) (ligand)
0.03 | > 2 |  | 1 | recombinant human flt3 ligand (ligand, UniProt P49771 27-185, looked up) TQDCSFQHSPISSDFAVKIRELSDYLLQDYPVTVASNLQDEELCGGLWRLVLAQRWMERLKTVAGSKMQGLLERVNTEIHFVTKCAFQPPPSCLRFVQTNISRLLQETSEQLVALKPWITRQNFSRCLELQCQPDSSTLPPPWSPRPLEATAPTAPQPP

From patent US20060052291A1
